Reference: PMC6116203

Molecular target: R1 pyocin fiber PLES_06171 fragment (residues 323–701) (Pseudomonas aeruginosa LESB58)
Experiment: crystal structure

R1 pyocin fiber PLES_06171 fragment (residues 323–701) (domain or fragment)
stoichiometry N: 3
